# Data published in paper PMC11375898 (Frontiers in Pharmacology, 2024).
# Like-named read-outs stand apart in the source and are kept apart here.
# Key:
# [1] = test system: adult subjects with overweight/obesity; test: Safety assessment (adverse events, NCI CTCAE 5.0), phase I multiple ascending dose trial; details: N = 16
# Method: (§1) This single center, open, multiple ascending dose study was conducted at the Phase I Clinical Research Center of the Affiliated Hospital of Qingdao University, Qingdao, China. […] The duration of each dose was 0.06 mg for three consecutive days, 0.1 mg for three consecutive days, 0.14 mg for five consecutive days, and 0.2 mg for five consecutive days (Figure 1). All volunteers were hospitalized 2 days before the first dosing and placed on a standardized diet during hospitalization. All participants were required to fast overnight before the first dosing.
# (§2) Safety assessments were conducted by monitoring physical examinations, vital signs (blood pressure, pulse rate, body temperature and respiratory rate), 12-lead ECG, clinical laboratory assays (blood routine, blood biochemistry and urine routine) and AEs. AEs were evaluated by the investigator throughout the study and the severity of AEs was defined in accordance with the Common Terminology Criteria for the Classification of Adverse Events of the National Cancer Institute (NCI CTCAE) version 5.0.
# [2] = human, in vivo; cited from earlier work
# [3] = set-up: method as in Chen et al., 2024; details: week 16, ref Chen et al., 2024, cited from earlier work
# [4] = in vivo
# Method: The duration of each dose was 0.06 mg for three consecutive days, 0.1 mg for three consecutive days, 0.14 mg for five consecutive days, and 0.2 mg for five consecutive days (Figure 1).
# Blood samples (3 mL) were collected in vacuum tubes containing EDTA-K2 at D-1 and at pre-dosing (0 h) and 5, 10, 15, 20, 25, 30, 40, 50, 60, 90, 120, 150 and 180 min after first administration on D6, D7, D11, D12, and D16. PK blood samples were collected at the time point corresponding to the administration date for blank baseline correction on D-1. The vacuum tubes were pre-cooled in the refrigerator (2°C–8°C) for at least 0.5–1 h before use. As the stabilizer, 30 μL DPP IV inhibitor (10 μL/mL) was immediately added into the blood. The stabilizer-spiked blood samples were kept with wet ice during transportation and were centrifuged at 3,000 rpm for 10 min at 4°C to separate the plasma. Samples were stored at −80°C until analysis.
# The standard curve ranged from 2.0 to 100.0 pM. The accuracy of intra-batch and inter-batch assays values were −16.7%–20.0% and −6.7%–3.2%, respectively.
# The primary PK parameters were maximum observed concentration (Cmax), the area under concentration-time curve from 0 to the last measurable concentration (AUC0-t) and AUC0-inf, whereas the secondary PK parameters were median time to reach maximum concentration (Tmax), terminal half-life time (t1/2), Vz/F, apparent clearance rate (CL/F), terminal elimination rate (λz) and accumulation index (Rac).
# Paired t-tests were used to compare the primary PK parameters between the 0.14 mg and 0.2 mg dose groups. Three doses (0.1, 0.14 and 0.2 mg) were evaluated for proportional dose-response relationships using power model. […] Statistical analysis was performed using SAS 9.4 (SAS Institute, Cary, NC, United States).
# [5] = test system: adult subjects with overweight/obesity; details: in vivo
# Method: as §1, §2
# [6] = Total, 0.06-0.2 mg sc three times daily
substance,measurement,setting,value
recombinant human GLP-1 (7-36) [beinaglutide],"AEs leading to death, % of subjects with event",[1]; 0.06 mg sc three times daily,0.0%
same,"AEs leading to death, E (number of events)",[1]; 0.06 mg sc three times daily,0
same,"AEs leading to death, n (subjects with event)",[1]; 0.06 mg sc three times daily,0
same,"Drug-related AEs leading to death, % of subjects with event",[1]; 0.06 mg sc three times daily,0.0%
same,"Drug-related AEs leading to death, E (number of events)",[1]; 0.06 mg sc three times daily,0
same,"Drug-related AEs leading to death, n (subjects with event)",[1]; 0.06 mg sc three times daily,0
same,"AEs leading to death, % of subjects with event",[1]; 0.1 mg sc three times daily,0.0%
same,"AEs leading to death, E (number of events)",[1]; 0.1 mg sc three times daily,0
same,"AEs leading to death, n (subjects with event)",[1]; 0.1 mg sc three times daily,0
same,"Drug-related AEs leading to death, % of subjects with event",[1]; 0.1 mg sc three times daily,0.0%
same,"Drug-related AEs leading to death, E (number of events)",[1]; 0.1 mg sc three times daily,0
same,"Drug-related AEs leading to death, n (subjects with event)",[1]; 0.1 mg sc three times daily,0
same,"AEs leading to death, % of subjects with event",[1]; 0.14 mg sc three times daily,0.0%
same,"AEs leading to death, E (number of events)",[1]; 0.14 mg sc three times daily,0
same,"AEs leading to death, n (subjects with event)",[1]; 0.14 mg sc three times daily,0
same,"Drug-related AEs leading to death, % of subjects with event",[1]; 0.14 mg sc three times daily,0.0%
same,"Drug-related AEs leading to death, E (number of events)",[1]; 0.14 mg sc three times daily,0
same,"Drug-related AEs leading to death, n (subjects with event)",[1]; 0.14 mg sc three times daily,0
same,"AEs leading to death, % of subjects with event",[1]; 0.2 mg sc three times daily,0.0%
same,"AEs leading to death, E (number of events)",[1]; 0.2 mg sc three times daily,0
same,"AEs leading to death, n (subjects with event)",[1]; 0.2 mg sc three times daily,0
same,"Drug-related AEs leading to death, % of subjects with event",[1]; 0.2 mg sc three times daily,0.0%
same,"Drug-related AEs leading to death, E (number of events)",[1]; 0.2 mg sc three times daily,0
same,"Drug-related AEs leading to death, n (subjects with event)",[1]; 0.2 mg sc three times daily,0
same,"AEs leading to death, % of subjects with event",[1]; [6],0.0%
same,"AEs leading to death, E (number of events)",[1]; [6],0
same,"AEs leading to death, n (subjects with event)",[1]; [6],0
same,"Drug-related AEs leading to death, % of subjects with event",[1]; [6],0.0%
same,"Drug-related AEs leading to death, E (number of events)",[1]; [6],0
same,"Drug-related AEs leading to death, n (subjects with event)",[1]; [6],0
same,apparent volume of distribution (Vz/F),[2],379 L
same,mean weight reduction,[3]; female participants,−6.9%
same,mean weight reduction,[3]; male participants,−4.7%
same,"Estimate of slope β1, Ln (AUC0-inf), proportional dose-response (power model)",[4],1.01
same,"Estimate of slope β1, Ln (AUC0-t,adj), proportional dose-response (power model)",[4],1.13
same,"Estimate of slope β1, Ln (Cmax), proportional dose-response (power model)",[4],1.13
same,arithmetic mean of CL/Fadj,[4]; sc,6.81 to 7.66 L/min
same,arithmetic mean of Vz/Fadj,[4]; sc,292.55 to 401.87 L
same,"arithmetic mean of t1/2, adj",[4]; sc,29.64 to 42.35 min
same,median of Tmax,[4]; sc,10 to 15 min
same,"median of Tmax,adj",[4]; sc,10 to 15 min
same,time to relief of nausea,[5],≤ 1 h
